{"source": "the DeepSol protein solubility set", "data": [{"experiment": "soluble on expression in E. coli; label from the status in PepcDB or PDB records", "values": [{"sequence": "MAHHHHHHMEAKFLKLRQEREEQRRHRSKKTGAITLQRQQYEAEAELLEAEVMQLLQEGNVTESQQRIDALRTLVQDTSNSISLTAHEMAKANVILARLQQRVDEKCSGAAPKKFKFSSRLKAKPTSDAEPATPSFSPTGTSDTNEATATATVPIAGTVSSTNGFGNVYGPSTGTDLFISHSKGVFINGCADCAIYCLPIAGSAFLSNCTNCRVYVACHQLRLKGCTNLDLYVWCASTPIIEECDAMRFGPYRCWVGLLSSCTEDGKTYATHAEWVSRVGEIEDTARTEQNYVKVDDFQWVKKRASPHWCVLAREEERASTTVFGPATLPSSSTAHSTVAADH", "soluble on expression in E. coli": "not soluble"}, {"sequence": "MGSDKIHHHHHHMSNLKPDSVIACLDCPNHVQAVLEASMWASIRLQAPIGLLYSVPSLQQKAAVDYSGCLNIDDENTLLDQFTAKEHLSNCELKAQGKRLLHQASSYCEQQRHKIKTYTLHRHEKLDESINYVDDQAQLIVIGHHVTCKSTLSQLIRSSHCPILVTHAPFLPPTSALFAFDNSPTSHKMLNWLCKTPLVRALMIHIVMVSKENSENCDALREAYARLKQAGIKCKKTLLDCRDVTSALTYYQHDNDIGLLMTGAFAQPRLIELLKGSDTKKLLGSTTTPYLLFPKA", "soluble on expression in E. coli": "not soluble"}, {"sequence": "MKYTEIMVRYGELSTKGKNRKTFIMQLAQNVKRALADFPALKIHADRDRMHILLNGEDSEEVIPKLSKVFGIQNFSPSIRIEKEMPAIRAMVQEVVREVYTPGKTFKITAKRSDHSFELDSNGLNQELGGAVIEAIPEIQVQMKKPDINLRIEIRKDAAYLSYETIRGAGGLPVGTSGRGMLMLSGGIDSPVAGYLAMKRGVEVEAVHFASPPYTSEQALQKAKDLAEKLVPYVGTIQFIEVPFTEIQEEIKRVVPQGYLMTITRRLMLRLTDAIREMRKGLVIINGESLAQVASQTLQSMVAINEVTSTPIIRPVVSMDKTEIIEIAEKIDTFELAIQPFEDCCTIFAPPQPKTRPRLDKAQEYEARLDLEGLMARALEGLKITEISAETAKDKQEDEFADFL", "soluble on expression in E. coli": "not soluble"}, {"sequence": "MTIKLINIGFGNIISANRMISIVSPESAPIKRMIQDARDRGMLIDATYGRRTRAVVVMDSDHIILSAVQPETVAHRLSVKEEIMDEGQG", "soluble on expression in E. coli": "not soluble"}, {"sequence": "MGSDKIHHHHHHMLPLPPYPLPNSIMWTQIDTHISQVTGEKFQSQQRRSVGGGCINQGYAVSNGEITYFVKLNLASQVAMFEAEALGLKEMLATASIRIPQPICWGVAENSSYIVLEWLELGNGNSNTSLRDAPRWEEMGRKLAAMHQASSSQGFGWKINNTIGSTPQINTWTADWTEFYIKHRLGYQFQLARRRGGSFPQQEKLLAAIRELLTHQVQPSLVHGDLWGGNAGCTASGEPVIFDPATYFGDREVDIAMTELFGGFPAAFYKGYNEVFPLDAGYEQRKTLYNLYHILNHFNLFGGGYASQANRMIDQILR", "soluble on expression in E. coli": "not soluble"}, {"sequence": "KPAPSAEHSYAEGEGLVKVFDNAPAEFTIFAVDTKGVARTDGGDPFEVAINGPDGLVVDAKVTDNNDGTYGVVYDAPVEGNYNVNVTLRGNPIKNMPIDVKCIEGANGEDSSFGSFTFTVAAKNKKGEVKTYGGDKFEVSITGPAEEITLDAIDNQDGTYTAAYSLVGNGRFSTGVKLNGKHIEGSPFKQVLGNPGKKNPEVKSFTTTRTAN", "soluble on expression in E. coli": "soluble"}, {"sequence": "MREHTLKNGMKLLMVERHTSPTVAAWIRFRVGSVDERSDERGIAHLLEHMLFKGTKTLGTKDYAAEKPLLDKIEETAQALIAEKAKGARADAGRVDELGKKLNALEADAGKYVIKEEFAEIYARNGGAGYNAMTGKDGTTYLINMPSNKLELWAAIEGDRMQNAVLREFYTERDVVMEERRRSYDTEPGSKLWETFVAVTYNAHPYGQPIIGWMSDLENLTRTKAEEFFRRYYKPNNAIVALVGDIDPDKTIALVEKYFGDIPPGTLVGPVAVVEPAQQGERRVEILADAEPELLVGFHKPTLPNPDDYVFDVIDMILADGRTSRLYKKLVVEKQLAAEVSTFSAPGSRYPNLFVLAATPRAPHTAKEVEDAIYEELERLKKEPMTERELAQILNRLEYEESRQMISNGGLARNLTEYEAVTGSWRYLIEHRKEVAKVTPDDVIRVARKYFVRENRTVGVITKKEDVK", "soluble on expression in E. coli": "not soluble"}, {"sequence": "MSKTIIKNIGKIVSGDIKSPVLQADTIVVEDGLIAAIGGEELMKDAGDATIIDAAGSTVTPGLLDTHVHVSGGDYAPRQKTMDFISSALHGGVTTMISAGSPHFPGRPKDAAGTKALAITLSKSYYNARPAGVKVHGGAVILEKGLTEEDFIEMKKEGVWIVGEVGLGTIKNPEDAAPMVEWAHKHGFKVQMHTGGTSIPGSSTVTADDVIKTKPDVVSHINGGPTAISVQEVDRIMDETDFAMEIVQCGNPKIADYVARRAAEKGQLGRVIFGNDAPSGTGLIPLGILRNMCQIASMSDIDPEVAVCMATGNSTAVYGLNTGVIAPGKEADLIIMDTPLGSVAEDAMGAIAAGDIPGISVVLIDGEAVVTKSRNTPPAKRAAKIL", "soluble on expression in E. coli": "soluble"}, {"sequence": "GTDDEEKDNNGQGSVSVETNYLPIADPYVMFYNNKYYAYGTGGTTAGEGFACFSSDDLKNWKREGQALSATDSYGTWGFWAPEVYYVESKKKFYLFYSAEEHICVATSTTPEGPFRQEVKQPIWSEKSIDTSLFIDDDGTPYLYFVRFTDGNVIWVAQMTDDLMSIKTETLNQCIKAEVSWELLQGKVAEGPSLLKKNGVYYLIYSANHYENKGYGVGYATSDTPMGPWVKYSKNPLLQGDAATGLVGTGHGAPFQCKDGSWKYIFHAHWSAAEIQPRTSYIKDFAISDQGVVTISGTVIKPRVLK", "soluble on expression in E. coli": "soluble"}, {"sequence": "MTATQITGVVLAAGRSNRLGTPKQLLPYRDTTVLGATLDVARQAGFDQLILTLGGAASAVRAAMALDGTDVVVVEDVERGCAASLRVALARVHPRATGIVLMLGDQPQVAPATLRRIIDVGPATEIMVCRYADGVGHPFWFSRTVFGELARLHGDKGVWKLVHSGRHPVRELAVDGCVPLDVDTWDDYRRLLESVPS", "soluble on expression in E. coli": "not soluble"}, {"sequence": "MRHAKSAYPDGIADHDRPLAPRGIREAGLAGGWLRANLPAVDAVLCSTATRARQTLAHTGIDAPARYAERLYGAAPGTVIEEINRVGDNVTTLLVVGHEPTTSALAIVLASISGTDAAVAERISEKFPTSGIAVLRVAGHWADVEPGCAALVGFHVPR", "soluble on expression in E. coli": "soluble"}, {"sequence": "MKITAIHLYAIRLPLRNPFVISYGSYSDMPSIIVKMETDEGIIGYGEGVADDHVTGESWESTFHTLKHTLTPALIGQNPMNIEKIHDMMDNTIYGVPTAKAAIDIACFDIMGKKLNQPVYQLIGGRYHEEFPVTHVLSIADPENMAEEAASMIQKGYQSFKMKVGTNVKEDVKRIEAVRERVGNDIAIRVDVNQGWKNSANTLTALRSLGHLNIDWIEQPVIADDIDAMAHIRSKTDLPLMIDEGLKSSREMRQIIKLEAADKVNIKLMKCGGIYPAVKLAHQAEMAGIECQVGSMVESSVASSAGFHVAFSKKIITSVELTGPLKFTKDIGNLHYDVPFIRLNEKPGLGIEINEDTLQELTVFQDIVR", "soluble on expression in E. coli": "soluble"}, {"sequence": "GSGAVTAGAAPRILKHQVVRAELDRMLDGMRIGDPFPAEREIAEQFEVARETVRQALRELLIDGRVERRGRTTVVARPKIRQPLGMGSYTEAAKAQGLSAGRILVAWSDLTADEVLAGVLGVDVGAPVLQLERVLTTDGVRVGLETTKLPAQRYPGLRETFDHEASLYAEIRSRGIAFTRTVDTIDTALPDAREAALLGADARTPMFLLNRVSYDQDDVAIEQRRSLYRGDRMTFTAVMHAKNSAIVS", "soluble on expression in E. coli": "soluble"}, {"sequence": "LVGSRREIAARNLELCFPEKSPAERERLLKENFASSGIAFFEMAMSWWWPKARLARLAHIEGLEHLREAQAQGEGVILMALHFTTLEIGAALLGQVHTIDGMYREHDNPVFDYVQRRGRERHNLDATAIEREDVRSMLKVLRGGRAIWYAPDQDYGAKQSLFVPLFGIPAATVTATTKFARLGRARVLPFTQSRLADGSGYRLTIHPPLEDFPGESEEADCLRINQWVERCVRQQPEQYLWAHRRFKTRPPGEAK", "soluble on expression in E. coli": "not soluble"}, {"sequence": "MVAKKWVYYFGGGNADGNKNMKELLGGKGANLAEMVNLGIPVPPGFTITTEACKTYQETETIPQEVADQVRENVSRVEKEMGAKFGDPANPLLFSVRSGAAASMPGMMDTVLNLGLNKVTVDAWVRRAPRLERFVYDSYRRFITMYADIVMQVGREDFEEALSRMKERRGTKFDTDLTASDLKELCDGYLELFELKTGCSFPQDPVMQLFAAIKAVFRSWGNPRATIYRRMNNITGLLGTAVNVQAMVFGNINDRSATGVAFSRSPSTGENFFFGEYLVNAQGEDVVAGIRTPQQINHSLSLRWAKAHGVGEEERRKRYPSMEEAMPENYRLLCDVRKRLENHYRDMQDLEFTVQDGRLWLLQCRNGKRTIHAAVRIAIDMVNEGLISREEAVLRIDPYQVDHLMHPNLEPGAEKANKPIGRGLAASPGAAVGQVVFDAESAKEWSGRGKKVIMVRLETSPEDLAGMDAACGILTARGGMTSHAAVVARGMGKCCVSGCGDMVIRGKSFKLNGSVFREGDYITIDGSKGLIYAGKLKLRSPDLKGSFQTILQWCQEMKRLGVRTNADTPADAAKARSFGAEGVGLCRTEHMFFEGSRINFIREMILADSASGRKAALDKLLPIQRADFVGILRAMRGLPVTIRLLDPPLHEFVPHDAAAQFELAQKLGMPAEKVRNRVNALHELNPMLGHRGCRLGITYPEIYNMQVRAIIEAAIAVSEEGSSVIPEIMVPLVGKKEELSLIREEVVKTAEAVITKSGKRVHYTVGTMIEVPRAAVTADSIAQKADFFSFGTNDLTQMGCGFSRDDAGPFLRHYGNLGIYAQDPFQSIDQEGIGELVRIAVTKGRRVKPMLKMGICGEHGGDPATIGFCHKVGLDYVSCSPFRVPVAIVAAAHASIKDRRAAMKARKGFAAKL", "soluble on expression in E. coli": "soluble"}, {"sequence": "MAHSEEQAAVPCAFIRQNSGNSISLDFEPDTEYQFVEQLEERYKCAFCHSVLHNPHQTGCGHRFCQQCIRSLRELNSVPICPVDKEVIKPQEVFKDNCCKREVLNLHVYCKNAPGCNARIILGRFQDHLQHCSFQAVPCPNESCREAMLRKDVKEHLSAYCRFREEKCLYCKRDIVVTNLQDHEENSCPAYPVSCPNRCVQTIPRARVNEHLTVCPEAEQDCPFKHYGCTVKGKRGNLLEHERAALQDHMLLVLEKNYQLEQRISDLYQSLEQKESKIQQLAETVKKFEKELKQFTQMFGRNGTFLSNVQALTSHTDKSAWLEAQVRQLLQIVNQQPSRLDLRSLVDAVDSVKQRITQLEASDQRLVLLEGETSKHDAHINIHKAQLNKNEERFKQLEGACYSGKLIWKVTDYRVKKREAVEGHTVSVFSQPFYTSRCGYRLCARAYLNGDGSGKGTHLSLYFVVMRGEFDSLLQWPFRQRVTLMLLDQSGKKNHIVETFKADPNSSSFKRPDGEMNIASGCPRFVSHSTLENSKNTYIKDDTLFLKVAVDLTDLEDL", "soluble on expression in E. coli": "soluble"}, {"sequence": "MAQLENQILETLKPLIDANTGKSYVAAKNVKNLKCGDAEISLDVVLAYPAKSQFDAVRQQFEAALAPLAEGRAIKIAVSAQIVSHSAQRGVPLLPGVKNVIAVASGKGGVGKSTTAANLALALADEGARVGLLDADIYGPSQPLMMGLQGQRPETADGKLTPLSNHGIQTMSIGYLVDADQAMVWRGPMVSQALQQLLNDTRWDDLDYLVIDMPPGTGDVQLTLSQKVPVTGALIVTTPQDIALLDARKGVTMFQKVGVPILGLVENMAIHVCSNCGHAEHIFGEGGAVKMAQDFGVELLGSLPLDLAIRQAVDEGRPSVAADPSGKPAELYRAIARRVAVKVGEKAQDFSGKFPKIVIQNNLEHHHHHH", "soluble on expression in E. coli": "not soluble"}]}]}
